Experiment [1] deals with NT3. The experiment in a line: cell-based or functional assay.
Experiment [2] addresses T1, human NGF (human, UniProt P01138 122-241). In words: SPR (BIAcore 3000), human NGF immobilised on CM5 chip, Fab injected.
In experiment [3] the target is T1, human NGF. In words: SPR (BIAcore), 100 RU human NGF on CM5 chip, Fab injected 2 min, 1800 s dissociation.
For experiment [4], the target named is T1, human NGF. In words: cell-based or functional assay.
In experiment [5] the target is T1, human NGF. In words: SPR (BIAcore 3000), human NGF immobilised on CM5 chip.
The target in experiment [6] is T1, human NGF. In words: SPR (BIAcore) screening assay, human NGF on chip, Fab from small culture lysates.
In experiment [7] the target is T1, human NGF. In words: SPR (BIAcore), human NGF immobilised on CM5 chip.
Experiment [8] addresses T1, human NGF. The experiment in a line: summary sentence of the binding properties (BIAcore); its table is not reproduced in this copy.
Experiment [9] addresses rat NGF (rat, UniProt P25427 122-241). In words: cell-based or functional assay.

Experimental findings from patent WO2010029497A1 (dated 2010) are described below.

Positions count from the first letter of the chain named. Numbers in names are those of the source.

T1 sequence (P01138 122-241 limits assumed): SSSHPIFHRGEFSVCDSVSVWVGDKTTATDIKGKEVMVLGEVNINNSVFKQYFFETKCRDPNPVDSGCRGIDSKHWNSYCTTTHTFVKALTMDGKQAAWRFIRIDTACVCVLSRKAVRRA
Sequence of rat NGF (P25427 122-241 limits assumed): as the sequence (P01138 122-241 limits assumed) above, with S3T, I6V, R9M, M37T, D60A, D65E, M92T, G94D, V117A, A120G counted along it
Sequence of NT3 (P20783 139-257): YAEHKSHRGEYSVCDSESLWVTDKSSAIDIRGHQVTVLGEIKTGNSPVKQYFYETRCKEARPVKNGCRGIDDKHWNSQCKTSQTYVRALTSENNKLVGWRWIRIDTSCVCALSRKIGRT

antibody E3 (full antibody) came in with an inhibition of survival of trigeminal neurons promoted by NT3 in experiment [1] above 200 nM.

“Fab fragment of mouse anti-NGF monoclonal antibody 911” showed a Kd in experiment [2] of 10 nM. Also, in [3], the Kd was determined as 3.7 nM, the koff came out at 8.4e-05 s⁻¹ and the kon stood at 22000 M⁻¹ s⁻¹. Besides, the concentration that totally blocked NGF-elicited survival of trigeminal neurons in experiment [4] is 20 nM.

B1: 8L2-4D5 (CDR-grafted antibody, the template) (Fab, V domains shown)
VH: QVQLQESGPGLVKPSETLSLTCTVSGFSLIGYDINWIRQPPGKGLEWIGMIWGDGTTDYNSALKSRVTISVDTSKNQFSLKLSSVTAADTAVYYCARGGYYYGTSYYFDYWGQGTLVTVS
VL: DIQMTQSPSSLSASVGDRVTITCRASQDISNHLNWYQQKPGKAPKLLIYYISRFHSGVPSRFSGSGSGTDFTFTISSLQPEDIATYYCQQSKTLPYTFGQGTKLEIKR
notes: expressed in E. coli with human kappa constant domain (GenBank CAA09181) and CH1 of human IgG2a (P01859)
As for B1, the dissociation constant (Kd) in [5] was around 38 nM.

B2: Fab 3C (Fab, V domains shown)
VH: B1 VH with I34L, M50I, L63V, V71K, Y101W, G103A
VL: B1 VL with D28S, H32N, I51T, S91E, K92R
notes: Fab from HEK293 cells
In turn, B2 had a Kd in experiment [3] of around 0.35 nM.

B3: 8L2-6D5 (CDR-grafted antibody with the framework mutation V71K) (Fab, V domains shown)
VH: B1 VH with V71K
VL: B1 VL
notes: Fab with human CH1 (IgG2a) and kappa constant domains, his tag at the C terminus of the heavy chain; also called clone 8L2-6D5; Fab 8L2-6D5
In [2], B3 yielded a Kd of around 15 nM. In experiment [6], this molecule registered a koff of 0.001 s⁻¹.

B4: H19-L129 (Fab, V domains shown)
VH: B1 VH with I34L, M50I, L63V, V71K
VL: B1 VL with D28S, H32N, I51T
notes: carries I34L, M50I, L63V (heavy) and D28S, H32N, I51T (light) with the grafted H3 and L3 CDRs, so it is E3 without Y101W, G103A, S91E, K92H; Fab with human CH1 (IgG2a) and kappa constant domains; also called Fab H19-L129; combined clone H19-L129
B4 showed an equilibrium dissociation constant (Kd) in experiment [7] of around 1 nM.

B5: Fab E3 (Fab, V domains shown)
VH: B1 VH with I34L, M50I, L63V, V71K, Y101W, G103A
VL: B1 VL with D28S, H32N, I51T, S91E, K92H
notes: Fab made in HEK293 cells, purified on Ni-NTA; also called 3E; Fab 3E
As for B5, the “fold higher binding affinity than parent mouse antibody 911” value in [8] is around 50 fold. In addition, in experiment [3], the equilibrium dissociation constant (Kd) was around 0.07 nM, the koff is around 4.2e-05 s⁻¹ and the kon was around 600000 M⁻¹ s⁻¹. In experiment [4], the “IC50, inhibition of human NGF-dependent survival of mouse E13.5 trigeminal neurons, 1.5 pM human NGF” value was around 1.2 pM and the “IC50, inhibition of human NGF-dependent survival of mouse E13.5 trigeminal neurons, 15 pM human NGF” value is around 21 pM. Moreover, in [9], the “IC50, inhibition of rat NGF-dependent survival of mouse E13.5 trigeminal neurons, 1.5 pM rat NGF” value was around 1.3 pM and the “IC50, inhibition of rat NGF-dependent survival of mouse E13.5 trigeminal neurons, 15 pM rat NGF” value was around 31.6 pM.
